In publication PMC12767058:
pKd: −log10 of the molar value.

Target: K-TM protein used for the affinity measurement with hFL (human)
Assay: BLI; method not given; BLI is the only affinity method that the paper describes (Octet R8, SA chip, PBST); who was immobilised is not said

hFL lectin (mannose-binding lectin, human recombinant protein)
pKd: 7.31
